Results: the supplement of paper PMC10567573

B1: TRIM39 (parent)
chain: CKACITRWWEDLERDFPCPVCRKT

Variants of: B1
Experiment: protein stability index of a GFP-peptide fusion (GPS, HEK-293T) (PSI 1-6); higher = more stable
Conditions: c terminus: a fixed tail appended
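Further: lentivirally expressed fusions sorted by FACS into six bins by GFP to DsRed ratio, PSI derived from sequencing read proportions per bin multiplied by bin number.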

Protein stability index: each site, then its substitutions
W8: Y 4.22; S 4.92; F 4.17; H 4.66; Q 4.83; G 4.8; R 4.62
C21: N 2.39; K 2.19; Y 3.73; I 1.38; F 1.43; G 1.4; Q 2.48; P 1.11; V 1.52; E 1.32; M 1.56; A 2.18; H 2.63; T 1.56; D 2.57; R 1.94; L 1.62; W 2.18; S 1.68
E13: L 3.15; H 3.23; R 3.46; C 2.82; W 2.92; G 3.79; Y 3.79; N 3.61; Q 3.94; V 2.98; T 3.13; S 3.63; M 2.95; K 2.98; P 3.61; A 3.36; I 3.08; D 3.7; F 3.37
R7: W 3.97; G 4.08; P 3.93; K 3.73; E 3.73; Y 4.85; C 3.8; N 3.89; I 2.96; Q 3.93; S 3.98; F 3.79; L 3.58; H 5.06; V 3.28; M 3.72; D 4; A 4.08; T 4.07
L12: H 2.89; C 3.88; W 3.87; D 4.05; Y 3.43; Q 3.65; G 4.11; V 3.63; R 3.86; M 4.14; F 3.88; S 4.44; E 3.29; T 4.45; I 3.71; N 4.24; P 4.06; A 4; K 4.19
P17: N 4.27; F 4.25; R 4.27; I 3.97; W 3.49; L 3.85; Y 3.9; D 3.5; E 4.41; Q 4.2; M 4.09; G 3.46; S 4.2; V 4.35; H 4; K 4.06; A 3.55; C 3.98; T 3.97
F16: Q 4.59; L 2.96; K 4.48; D 4.42; P 3.76; I 3.78; M 3.99; A 4.32; C 2.32; T 4.37; G 4.05; Y 3.7; H 4.1; W 3.6; E 4.66; R 4.2; N 3.54; S 4.27; V 4.04
E10: K 3.5; C 3.64; A 4.08; W 2.92; D 4.11; H 3.77; N 4.11; V 3.16; L 3.13; F 3.51; G 3.94; M 3.64; T 4.08; P 3.72; Q 3.56; R 3.06; S 3.78; Y 3.24; I 3.65
D11: H 3.52; F 3.5; G 2.85; C 3.38; S 4.28; V 3.79; L 3.57; P 3.93; E 3.68; A 3.71; T 3.58; R 3.4; W 3.37; N 4.06; Q 3.48; Y 3.31; I 2.53; K 3.5; M 3.9
C4: P 2.1; Q 2.41; Y 1.61; S 2.07; R 2.18; V 2.19; W 1.75; T 2.24
